Here are results for three molecules from PMC5737872.

What all share (test): X-ray crystallography
Data set [1] deals with T1, Nrd1 290-468 wt (Saccharomyces cerevisiae, UniProt P53617 290-468).
T1 sequence: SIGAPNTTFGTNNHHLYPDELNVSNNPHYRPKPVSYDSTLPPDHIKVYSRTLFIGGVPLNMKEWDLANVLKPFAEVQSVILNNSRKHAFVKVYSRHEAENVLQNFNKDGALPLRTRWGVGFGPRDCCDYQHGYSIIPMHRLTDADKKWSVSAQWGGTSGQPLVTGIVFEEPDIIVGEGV

Data set [2] concerns the target T1, Nrd1 290-468 wt. The source holds these as a separate data set.
The target of data set [3] is T1, Nrd1 290-468 wt. This is another data set of the same source.

Like-named read-outs stand apart in the source and are kept apart here.

Regarding GUAA (ssRNA), in data set [1], the binding result is “binds”.
As to CGUAAA (ssRNA), the binding result in data set [2] was “binds”.
On to UUAGUAAUCC (ssRNA), for which the binding result in data set [3] is “binds”.
